Data as given in patent US20030147847A1 (IMMUNEX, published 2003).

Experiments:
[1] = target: T1, Full length UL16 on transfected 293 EBNA cells (human cytomegalovirus, UniProt P16757 27-230); assay: flow cytometry on 293 EBNA cells transfected with full length UL16
T1 construct: whole, on cells; also called UL16 FL
T1 sequence: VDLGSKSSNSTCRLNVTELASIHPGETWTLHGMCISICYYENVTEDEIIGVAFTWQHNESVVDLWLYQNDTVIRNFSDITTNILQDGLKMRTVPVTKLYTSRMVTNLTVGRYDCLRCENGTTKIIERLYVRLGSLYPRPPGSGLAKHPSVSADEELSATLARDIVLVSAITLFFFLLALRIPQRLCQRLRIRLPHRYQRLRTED

[2] = target: T2, NKG2D/Dap10 on transfected 293E cells (UniProt P26718 1-216; Q9UBK5 19-93); assay: flow cytometry, transfected 293 EBNA cells, 2 µg Fc protein + goat anti-human IgG PE
T2 construct: whole, on cells; Co-expressed on 293 EBNA (293E) cells from the pDC409 vector; also called NKG2D+FLAG tagged Dap10
T2 sequence 1: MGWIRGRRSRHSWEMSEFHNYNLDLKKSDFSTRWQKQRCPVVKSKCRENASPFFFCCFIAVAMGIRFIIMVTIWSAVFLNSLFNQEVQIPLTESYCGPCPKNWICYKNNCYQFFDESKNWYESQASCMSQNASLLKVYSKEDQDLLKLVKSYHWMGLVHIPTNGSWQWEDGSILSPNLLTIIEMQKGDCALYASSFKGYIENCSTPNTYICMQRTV
T2 sequence 2: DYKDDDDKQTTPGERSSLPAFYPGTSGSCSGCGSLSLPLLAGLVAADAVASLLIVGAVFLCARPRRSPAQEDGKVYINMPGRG

[3] = target: T3, NKG2D alone on transfected 293 EBNA cells (UniProt P26718 1-216, limits assumed); assay: as above
T3 construct: whole, on cells
T3 sequence (looked up): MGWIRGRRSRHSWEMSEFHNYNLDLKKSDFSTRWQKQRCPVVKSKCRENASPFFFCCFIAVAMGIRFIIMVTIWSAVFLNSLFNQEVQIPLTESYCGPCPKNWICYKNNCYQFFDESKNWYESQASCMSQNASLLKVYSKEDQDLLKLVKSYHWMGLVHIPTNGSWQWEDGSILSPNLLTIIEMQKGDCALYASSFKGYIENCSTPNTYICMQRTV

[4] = target: T4, FLAG tagged Dap10 alone on transfected 293 EBNA cells (UniProt Q9UBK5 19-93); assay: as above
T4 construct: whole, on cells
T4 sequence: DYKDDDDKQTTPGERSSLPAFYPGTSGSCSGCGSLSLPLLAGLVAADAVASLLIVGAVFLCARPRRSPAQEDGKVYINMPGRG

[5] = target: T1, Full length UL16 on transfected 293 …; assay: as above
[6] = target: T2, NKG2D/Dap10 on transfected 293E cells; assay: flow cytometry; NKG2D/Dap10-transfected 293E cells preincubated with 25 µg ULBP1/LZ (competitor)
[7] = target: T2, NKG2D/Dap10 on transfected 293E cells; assay: flow cytometry; NKG2D/Dap10-transfected 293E cells preincubated with 25 µg hCD40L/LZ (control blocking protein)

B1: ULBP3/Fc (Fc fusion)
chain: DAHSLWYNFTIIHLPRHGQQWCEVQSQVDQKNFLSYDCGSDKVLSMGHLEEQLYATDAWGKQLEMLREVGQRLRLELADTELEDFTPSGPLTLQVRMSCECEADGYIRGSWQFSFDGRKFLLFDSNNRKWTVVHAGARRMKEKWEKDSGLTTFFKMVSMRDCKSWLRDFLMHRKKRLEPTAPPTMAPG
notes: That entry lacks the first five residues of the leader and still holds the rest of the signal peptide and the GPI signal; not shown: Fc portion of ULBP3/Fc is not described
[1]
  binding result: no binding (tested: 2 µg)
[2]
  Mean Fluorescence Intensity (MFI): 102 MFI
[3]
  Mean Fluorescence Intensity (MFI): 9.55 MFI
[4]
  Mean Fluorescence Intensity (MFI): 14 MFI
[5]
  Mean Fluorescence Intensity (MFI): 11.9 MFI
[6]
  Mean Fluorescence Intensity (MFI): 13 MFI
[7]
  Mean Fluorescence Intensity (MFI): 267 MFI
